Experimental data: patent publication US5766899

Key:
[1] = molecular target: CS receptor on primary mouse hepatocytes (mouse)
[2] = molecular target: CS receptor on primary mouse hepatocytes (mouse); remark: listed apart in the source
[3] = substrate: CS receptor on primary mouse hepatocytes (mouse); remark: listed apart in the source

| Molecule | transfection efficiency of primary hepatocytes (X-gal staining) (% transfection efficiency) [2] | further results |
| --- | --- | --- |
| DHFR-CSF1-His6/poly(L-lysine) conjugate (from UniProt P00375) |  | Blue cells (%) after transfection of primary hepatocytes with conjugate/pCMV-β-gal DNA complex (X-gal staining) [1]: < 1 % blue cells |
| BSA/poly(L-lysine) conjugate (from UniProt P02769) | < 10 |  |
| poly(L-lysine) | < 5 |  |
| EWSPCSVTCGNGIQVRIKPGSAN [Peptide E35] |  | inhibition of β-galactosidase activity (ONPG) in CS27IVC-His6 conjugate-mediated gene transfer into primary hepatocytes (% inhibited at 0.125 µM) [3]: 50 |
